Measurements as given in US20240117018A1.

Tests used:
Assay in all cases: cell-based or functional assay
[1] = target: Env of HIV-1 pseudovirus TRJO4551.58 (HIV-1)
[2] = target: Env of HIV-1 pseudovirus AC10.0.29 (HIV-1)
[3] = target: Env of HIV-1 pseudovirus HIV-16845-2.22 (HIV-1)
[4] = target: Env of HIV-1 pseudovirus Ce703010054_2A2 (HIV-1)
[5] = target: Env of HIV-1 pseudovirus 928-28 (HIV-1)
[6] = target: Env of HIV-1 pseudovirus CNE17 (HIV-1)
[7] = target: Env of HIV-1 pseudovirus ZM109F.PB4 (HIV-1)
[8] = target: Env of HIV-1 pseudovirus SC422661.8 (HIV-1)
[9] = target: Env of HIV-1 pseudovirus 62357_14_D3_4589 (HIV-1)
[10] = target: Env of HIV-1 pseudovirus 6244_13_B5_4576 (HIV-1)
[11] = target: Env of HIV-1 pseudovirus 6240_08_TA5_4622 (HIV-1)
[12] = target: Env of HIV-1 pseudovirus 1054_07_TC4_1499 (HIV-1)
[13] = target: HIV-1 Env pseudovirus 3817.v2.c59 (HIV-1)
[14] = target: HIV-1 Env pseudovirus BJOX009000.02.4 (HIV-1)
[15] = target: HIV-1 Env pseudovirus 6545.v4.c1 (HIV-1)
[16] = target: HIV-1 Env pseudovirus R2184.c04 (HIV-1)
[17] = target: HIV-1 Env pseudovirus 89-F1_2_25 (HIV-1)
[18] = target: HIV-1 Env pseudovirus C3347.c11 (HIV-1)
[19] = target: HIV-1 Env pseudovirus 3016.v5.c45 (HIV-1)

Substance: PG9 (antibody)
- IC50 [1]: 0.503 µg/mL
- IC80 [1]: 4.06 µg/mL
- IC50 [2]: 0.117 µg/mL
- IC80 [2]: 0.845 µg/mL
- IC50 [3]: 4.4 µg/mL
- IC80 [3]: > 50 µg/mL
- IC50 [4]: 0.022 µg/mL
- IC80 [4]: 0.103 µg/mL
- IC50 [5]: 0.101 µg/mL
- IC80 [5]: 0.45 µg/mL
- IC50 [6]: 0.21 µg/mL
- IC80 [6]: 0.484 µg/mL
- IC50 [7]: 0.256 µg/mL
- IC80 [7]: 6.69 µg/mL
- IC50 [8]: 0.553 µg/mL
- IC80 [8]: 7.05 µg/mL
- IC50 [9]: > 50 µg/mL
- IC80 [9]: > 50 µg/mL
- IC50 [10]: > 50 µg/mL
- IC80 [10]: > 50 µg/mL
- IC50 [11]: 1.75 µg/mL
- IC80 [11]: 6.33 µg/mL
- IC50 [12]: > 50 µg/mL
- IC80 [12]: > 50 µg/mL

Substance: PG16 (antibody)
- IC50 [1]: 1.01 µg/mL
- IC80 [1]: 24.5 µg/mL
- IC50 [2]: 0.023 µg/mL
- IC80 [2]: 0.417 µg/mL
- IC50 [3]: 3.13 µg/mL
- IC80 [3]: > 50 µg/mL
- IC50 [4]: 0.008 µg/mL
- IC80 [4]: 0.053 µg/mL
- IC50 [5]: 0.034 µg/mL
- IC80 [5]: 0.237 µg/mL
- IC50 [6]: 0.029 µg/mL
- IC80 [6]: 0.132 µg/mL
- IC50 [7]: 7.03 µg/mL
- IC80 [7]: > 50 µg/mL
- IC50 [8]: 0.858 µg/mL
- IC80 [8]: > 50 µg/mL
- IC50 [9]: > 50 µg/mL
- IC80 [9]: > 50 µg/mL
- IC50 [10]: > 50 µg/mL
- IC80 [10]: > 50 µg/mL
- IC50 [11]: > 50 µg/mL
- IC80 [11]: > 50 µg/mL
- IC50 [12]: > 50 µg/mL
- IC80 [12]: > 50 µg/mL

Substance: VRC07 (antibody)
- IC50 (Titer in TZM.bl cells) [13]: 1.9 µg/mL
- IC80 (Titer in TZM.bl cells) [13]: 19.8 µg/mL
- IC50 (Titer in TZM.bl cells) [14]: 0.806 µg/mL
- IC80 (Titer in TZM.bl cells) [14]: 2.9 µg/mL
- IC50 (Titer in TZM.bl cells) [15]: > 50 µg/mL
- IC80 (Titer in TZM.bl cells) [15]: > 50 µg/mL
- IC50 (Titer in TZM.bl cells) [16]: 0.02 µg/mL
- IC80 (Titer in TZM.bl cells) [16]: 0.104 µg/mL
- IC50 (Titer in TZM.bl cells) [17]: > 50 µg/mL
- IC80 (Titer in TZM.bl cells) [17]: > 50 µg/mL
- IC50 (Titer in TZM.bl cells) [18]: 0.06 µg/mL
- IC80 (Titer in TZM.bl cells) [18]: 0.38 µg/mL
- IC50 (Titer in TZM.bl cells) [19]: 0.095 µg/mL
- IC80 (Titer in TZM.bl cells) [19]: 0.392 µg/mL
